According to patent US8058228B2, “Leptin peptide antagonists” (Boston Biomedical Research Institute, priority 2004, dated 2011):

Biological target: T1, OB-R (Homo sapiens, UniProt P48357)
T1 construct: After confirming via Western that the primary EEC and ESC and endometrial cell lines utilized herein had OB-R; endogenous in cells; host or cells: primary human EEC and ESC; Ishikawa (ECACC 9832301) and HES cell lines
T1 sequence (P48357 22-1165): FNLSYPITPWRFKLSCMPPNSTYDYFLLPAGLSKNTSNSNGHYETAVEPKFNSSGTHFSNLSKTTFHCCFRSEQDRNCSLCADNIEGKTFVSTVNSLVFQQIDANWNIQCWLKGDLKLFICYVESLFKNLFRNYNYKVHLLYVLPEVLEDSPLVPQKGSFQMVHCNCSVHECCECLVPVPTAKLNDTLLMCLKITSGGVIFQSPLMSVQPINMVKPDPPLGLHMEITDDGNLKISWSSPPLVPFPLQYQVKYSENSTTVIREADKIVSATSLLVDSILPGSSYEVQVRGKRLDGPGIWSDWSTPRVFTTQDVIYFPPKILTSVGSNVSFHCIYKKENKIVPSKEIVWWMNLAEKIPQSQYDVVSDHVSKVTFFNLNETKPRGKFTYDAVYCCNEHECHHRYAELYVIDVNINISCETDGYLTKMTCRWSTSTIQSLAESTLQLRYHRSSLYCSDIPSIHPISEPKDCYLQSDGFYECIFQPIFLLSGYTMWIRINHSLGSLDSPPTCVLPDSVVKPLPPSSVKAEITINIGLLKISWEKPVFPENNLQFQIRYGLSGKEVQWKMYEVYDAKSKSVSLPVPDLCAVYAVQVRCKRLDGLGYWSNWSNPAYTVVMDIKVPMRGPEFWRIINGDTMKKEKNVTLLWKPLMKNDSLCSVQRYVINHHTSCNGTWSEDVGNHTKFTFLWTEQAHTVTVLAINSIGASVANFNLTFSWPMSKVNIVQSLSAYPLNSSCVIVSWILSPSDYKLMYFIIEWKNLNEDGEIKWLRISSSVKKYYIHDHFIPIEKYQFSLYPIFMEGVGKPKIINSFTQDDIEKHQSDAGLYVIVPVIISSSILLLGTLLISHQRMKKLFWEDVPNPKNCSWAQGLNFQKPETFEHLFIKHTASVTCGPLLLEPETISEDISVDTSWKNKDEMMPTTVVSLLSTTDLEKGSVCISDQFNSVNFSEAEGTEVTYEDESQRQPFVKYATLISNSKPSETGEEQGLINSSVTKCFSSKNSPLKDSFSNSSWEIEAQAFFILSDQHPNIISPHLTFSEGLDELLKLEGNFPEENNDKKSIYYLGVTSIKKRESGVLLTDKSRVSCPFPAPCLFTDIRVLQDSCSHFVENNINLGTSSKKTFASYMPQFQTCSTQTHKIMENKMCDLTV
Assay: p-STAT3 levels in human endometrial cells (Western blot)
Assay type: cell-based
Details: for effect on leptin-induced increase of p-STAT3 levels: peptide 300 nM
Method: Primary human endometrial cells (ESC and EEC) were cultured for 5-9 days in DMEM-F12 medium containing 5% fetal bovine serum (FBS), 5 μg/ml insulin, 1% amphopthericin B, 100 μg/ml streptomycin and 100 U/ml penicillin until they were 80% confluent. Two types of endometrial epithelial cell lines, HES (originally derived from a benign proliferative endometrium) and Ishikawa (human endometrial epithelial adenocarcinoma, ECACC 9832301, Wiltshire, England) were cultured under the same conditions described above. The cells were washed twice with 100 mM phosphate saline buffer (PBS), pH 7.2 and cultured for additional 2 days in the same medium but without FBS (basal medium). Cells were washed as described before and cultured in basal medium containing leptin (0, 3, 10 or 62 nM) or IL-1β (0.6, 3 and 10 nM).
The anti-OB-R antibody (10 and 20 μg/ml) and LPA-2, a specific inhibitor of OB-R (3, 120, 300 nM or 30 μM) were used to assess whether leptin-induced effects were regulated primarily by the OB-R. Non-specific species-matched IgGs to the OB-R antibody and a scrambled version of LPA-2 (LPA-2Sc) served as negative controls (Gonzalez and Leavis, Endocrine 21: 185-195 (2003)). Inhibitors of IL-1R were used (monoclonal antibody anti-IL-1R tl and IL-1Ra) to assess whether leptin activated IL-1 induced signaling pathways or just activated similar components responsible for LIF/LIF-R expression. Treatment with the cytokine, inhibitor or the two combined was implemented for 5, 15, 30 and 60 min, and 24 and 48 h. The cells were prepared for Western blot analysis. The conditioned media was collected, lyophilized and stored at −80° C. until analysis for LIF, IL-1β and IL-1Ra by ELISA could be performed. Duplicate wells were run for each treatment and the experiments repeated at least three times with different cell preparations.
Endometrial cells were washed with ice-cold PBS and lysed by homogenization on ice with lysis buffer A [[…] Tris, pH 7.4, containing 137 nM NaCl, 2 mM EDTA, 10% glycerol, 50 mM β-glycerophosphate, 1% Nonidet P-40 and a mixture of proteases and phosphatase inhibitors composed of 100 μM antipain, 0.1 mg/ml trypsin inhibitor, protease inhibitor cocktail 1:50 (Sigma), 50 nM NaF, 2 mM phenyl-methylsulfonyl fluoride, and 2 mM sodium orthovanadate]. Cellular lysates were centrifuged at 2400 g at 4° C. for 10 min. For nuclear lysates the cells were scraped from the culture plates and homogenized with lysis buffer B (10 nM Tris, pH 7.4, 0.25 M sucrose, 0.1 mM EDTA containing the same mixture of protease and phosphatase inhibitors as buffer A). Protein concentrations were determined using the Bradford protein assay (BioRad Laboratories Inc., Hercules, Calif.).
30 μg of protein from nuclear or cellular lysates were incubated in ependorf tubes containing 0.5 μg of primary antibodies (anti-LIF-R, OB-R, STAT3 and p-STAT3 diluted in buffer A) for 2 h at 4° C. under constant stirring. The immuno-complexes were incubated with 20 μl of Protein G-Agarose (Amersham Pharmacia Biotech) diluted 1:1 with buffer A for a 2 additional hours under constant stirring. The beads were centrifuged for 1 min at 1000 g and washed with buffer A containing 0.5 M NaCl followed by a final wash with buffer A.
Cellular lysates and their immunoprecipitates containing 10-30 μg of protein plus Laemmli buffer (1:1) were incubated at 95° C. for 5 min. […]

Substance	p-STAT3 level compared to non-treated control cells (Ishikawa cells, LPA-2 treatment)	effect on leptin-induced increase of p-STAT3 levels (Ishikawa cells, leptin 62 nM)	p-STAT3 levels over non-treated controls after leptin (Ishikawa cells, leptin 62 nM)	p-STAT3 levels after leptin (primary EEC, leptin 10 and 62 nM, 5 min, nuclear extracts)
SRNVIQISNDLENLRDLLHVLAFSKS [LPA-2, 26 amino acid peptide, residues 70-95 of helix III of the human leptin molecule; leptin peptide antagonist]	decrease level of p-STAT3	inhibited the leptin-induced increase	–	–
leptin: human recombinant leptin (R&D Systems), OB-R ligand used as stimulus	–	–	increased the levels of p-STAT3	increase in the levels of p-STAT3
VAEVLNRSDLIQRISFSLDLNNSKLH [LPA-2Sc, scrambled version of LPA-2, negative control, reference compound]	–	had no effect	–	–
